Experimental data: patent US20240327534A1 (HARPOON THERAPEUTICS, published 2024)

Experiments:
[1] = target: T1, human BCMA on BCMA expressing cell lines (human, UniProt Q02223 1-184); test: cell-based or functional assay
T1 sequence: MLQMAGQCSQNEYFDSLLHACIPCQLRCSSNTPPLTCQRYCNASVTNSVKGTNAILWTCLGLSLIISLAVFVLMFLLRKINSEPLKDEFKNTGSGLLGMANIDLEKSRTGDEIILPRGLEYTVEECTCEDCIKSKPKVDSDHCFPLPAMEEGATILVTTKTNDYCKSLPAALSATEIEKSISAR

human BCMA protein = target: T2, human BCMA protein (human, UniProt Q02223 1-54, limits assumed); test: affinity to human BCMA protein, method not stated
T2 sequence: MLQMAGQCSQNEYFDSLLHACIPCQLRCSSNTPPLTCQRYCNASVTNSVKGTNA

Binder | TDCC EC50 (EJM cells) [1] | Kd (human BCMA protein)
BCMA targeting trispecific protein 253BH10 (other, not shown: large carriers; small tags and cut ends, trispecific; described as a molecule with the parental CDRs; also called BH253) VHH: QVQLVESGGGLVQPGESLRLSCAASTNIFSISPMGWYRQAPGKQRELVAAIHGFSTLYADSVKGRFTISRDNAKNTIYLQMNSLKPEDTAVYYCNKVPWGDYHPRNVYWGQGTQVTVSS | 0.0529 nM | 27.7 nM
BCMA targeting trispecific protein 01C01 (other, not shown: large carriers; small tags and cut ends, trispecific) VHH: EVQLVESGGGLVQPGRSLTLSCAASTNIVSISPMGWYRQAPGKQRELVAAIHGHSTLYADSVKGRFTISRDNAKNSIYLQMNSLRPEDTALYYCNKVPWGDYHPGNVYWGQGTQVTVSS | 0.00133 nM | 6.52 nM
BCMA targeting trispecific protein 01A07 (other, trispecific; not shown: the C-terminal His6 follows those missing domains and is left out) VHH: EVQLVESGGGLVQPGRSLTLSCAASTNISSISPMGWYRQAPGKQRELVAAIHGTSTLYADSVKGRFTISRDNAKNSIYLQMNSLRPEDTALYYCNKVPWGDYHPGNVYWGQGTQVTVSS | 0.00249 nM | 6.95 nM
BCMA targeting trispecific protein 01A04 (other, not shown: large carriers; small tags and cut ends, trispecific) VHH: EVQLVESGGGLVQPGRSLTLSCAASTNIFMISPMGWYRQAPGKQRELVAAIHGDSTLYADSVKGRFTISRDNAKNSIYLQMNSLRPEDTALYYCNKVPWGRYHPRNVYWGQGTQVTVSS | 0.159 nM | 37.5 nM
BCMA targeting trispecific protein 01A03 (other, not shown: large carriers; small tags and cut ends, trispecific) VHH: EVQLVESGGGLVQPGRSLTLSCAASTNIFSISPGGWYRQAPGKQRELVAAIHGSSTLYADSVKGRFTISRDNAKNSIYLQMNSLRPEDTALYYCNKVPWGDYHPRNVYWGQGTQVTVSS | 0.0461 nM | 30.8 nM
BCMA targeting trispecific protein 01B03 (other, not shown: large carriers; small tags and cut ends, trispecific) VHH: EVQLVESGGGLVQPGRSLTLSCAASTNIFSKSPMGWYRQAPGKQRELVAAIHGKSTLYADSVKGRFTISRDNAKNSIYLQMNSLRPEDTALYYCNKVPWGDYHPRNVVWGQGTQVTVSS | 0.0964 nM | 26.2 nM
BCMA targeting trispecific protein 01B07 (other, not shown: large carriers; small tags and cut ends, trispecific) VHH: EVQLVESGGGLVQPGRSLTLSCAASTNIFSRSPMGWYRQAPGKQRELVAAIHGNSTLYADSVKGRFTISRDNAKNSIYLQMNSLRPEDTALYYCNKVPWGIYHPRNVYWGQGTQVTVSS | 0.174 nM | 43.9 nM
BCMA targeting trispecific protein 01H06 (other, not shown: large carriers; small tags and cut ends) VHH: EVQLVESGGGLVQPGRSLTLSCAASTSDFSISPMGWYRQAPGKQRELVAAIHGFETLYADSVKGRFTISRDNAKNSIYLQMNSLRPEDTALYYCNKVPWGDYHPGNVYWGQGTQVTVSS | 0.001 nM | 
BCMA targeting trispecific protein 01C08 (other, not shown: large carriers; small tags and cut ends, trispecific) VHH: EVQLVESGGGLVQPGRSLTLSCAASTNIFSNSPMGWYRQAPGKQRELVAAIHGGSTLYADSVKGRFTISRDNAKNSIYLQMNSLRPEDTALYYCNKVPWGDYHPRNVHWGQGTQVTVSS | 0.0457 nM | 28.3 nM
BCMA targeting trispecific protein 01A06 (other, trispecific; not shown: the C-terminal 6xHis tag follows those missing domains and is left out) VHH: EVQLVESGGGLVQPGRSLTLSCAASTNIFSIRPMGWYRQAPGKQRELVAAIHGFSTVYADSVKGRFTISRDNAKNSIYLQMNSLRPEDTALYYCNKVPWGDYHPRNVYWGQGTQVTVSS | 0.011 nM | 15.8 nM
BCMA targeting trispecific protein 01C07 (other, not shown: large carriers; small tags and cut ends, trispecific) VHH: EVQLVESGGGLVQPGRSLTLSCAASTNIFSIYPMGWYRQAPGKQRELVAAIHGFSTYYADSVKGRFTISRDNAKNSIYLQMNSLRPEDTALYYCNKVPWGSYHPRNVYWGQGTQVTVSS | 0.0833 nM | 19.8 nM
BCMA targeting trispecific protein 01A08 (other, not shown: large carriers; small tags and cut ends, trispecific) VHH: EVQLVESGGGLVQPGRSLTLSCAASTNIFSSSPMGWYRQAPGKQRELVAAIHGESTLYADSVKGRFTISRDNAKNSIYLQMNSLRPEDTALYYCNKVPWGDYHPRKVYWGQGTQVTVSS | 0.00425 nM | 11.7 nM
BCMA targeting trispecific protein 01B09 (other, not shown: large carriers; small tags and cut ends, trispecific) VHH: EVQLVESGGGLVQPGRSLTLSCAASSNIFSISPMGWYRQAPGKQRELVAAIHGSSTLYADSVKGRFTISRDNAKNSIYLQMNSLRPEDTALYYCNKVPWGDYHPGNVYWGQGTQVTVSS | 0.00527 nM | 11.2 nM
BCMA targeting trispecific protein 01B04 (other, trispecific; not shown: anti-albumin domain, anti-CD3 domain and the linkers of the trispecific (TriTAC) chain; the C-terminal 6xHis tag follows these missing domains and is left out) VHH: EVQLVESGGGLVQPGRSLTLSCAASTNDFSISPMGWYRQAPGKQRELVAAIHGKSTLYADSVKGRFTISRDNAKNSIYLQMNSLRPEDTALYYCNKVPWGDYHPRNVKWGQGTQVTVSS | 0.0161 nM | 18.6 nM
BCMA targeting trispecific protein 01C10 (other, not shown: large carriers; small tags and cut ends, trispecific) VHH: EVQLVESGGGLVQPGRSLTLSCAASTNISSISPMGWYRQAPGKQRELVAAIHGFSTLYADSVKGRFTISRDNAKNSIYLQMNSLRPEDTALYYCNKVPWGYYHPRNVYWGQGTQVTVSS | 0.208 nM | 46.4 nM
BCMA targeting trispecific protein 01B05 (other, not shown: large carriers; small tags and cut ends, trispecific) VHH: EVQLVESGGGLVQPGRSLTLSCAASTNITSISPMGWYRQAPGKQRELVAAIHGFETLYADSVKGRFTISRDNAKNSIYLQMNSLRPEDTALYYCNKVPWGDYHPGNVYWGQGTQVTVSS | 0.00301 nM | 6.52 nM
BCMA targeting trispecific protein 01A01 (other, not shown: large carriers; small tags and cut ends, trispecific) VHH: EVQLVESGGGLVQPGRSLTLSCAASTDIFSISPMGWYRQAPGKQRELVAAIHGGSTLYADSVKGRFTISRDNAKNSIYLQMNSLRPEDTALYYCNKVPWGDYHPRNVAWGQGTQVTVSS | 0.0264 nM | 21.3 nM
BCMA targeting trispecific protein 01B01 (other, not shown: large carriers; small tags and cut ends, trispecific) VHH: EVQLVESGGGLVQPGRSLTLSCAASTNIPSISPMGWYRQAPGKQRELVAAIHGESTLYADSVKGRFTISRDNAKNSIYLQMNSLRPEDTALYYCNKVPWGDYHPRNVAWGQGTQVTVSS | 0.0195 nM | 19.9 nM
BCMA targeting trispecific protein 01C02 (other, trispecific; not shown: The C-terminal 6xHis tag is left out because it follows these missing domains) VHH: EVQLVESGGGLVQPGRSLTLSCAASTNIESISPMGWYRQAPGKQRELVAAIHGNSTLYADSVKGRFTISRDNAKNSIYLQMNSLRPEDTALYYCNKVPWGRYHPRNVYWGQGTQVTVSS | 0.0373 nM | 20 nM
BCMA targeting trispecific protein 01B02 (other, trispecific; not shown: anti-albumin domain, anti-CD3 domain and the linkers of the trispecific; the C-terminal His6 that follows them is left out) VHH: EVQLVESGGGLVQPGRSLTLSCAASTNITSISPMGWYRQAPGKQRELVAAISGFSTLYADSVKGRFTISRDNAKNSIYLQMNSLRPEDTALYYCNEVPWGDYHPRNVYWGQGTQVTVSS | 0.359 nM | 18.8 nM
BCMA targeting trispecific protein 01D02 (other, trispecific; not shown: the C-terminal His6 follows those missing domains and is left out) VHH: EVQLVESGGGLVQPGRSLTLSCAASTNIVSISPMGWYRQAPGKQRELVAAIHGKSTLYADSVKGRFTISRDNAKNSIYLQMNSLRPEDTALYYCNKVPWGDYHPGNVYWGQGTQVTVSS | 0.00225 nM | 7.35 nM
BCMA targeting trispecific protein 01A09 (other, not shown: large carriers; small tags and cut ends, trispecific) VHH: EVQLVESGGGLVQPGRSLTLSCAASTNIFSITPMGWYRQAPGKQRELVAAIHGRSTLYADSVKGRFTISRDNAKNSIYLQMNSLRPEDTALYYCNKVPWGSYHPRNVYWGQGTQVTVSS | 0.0484 nM | 23.9 nM
BCMA targeting trispecific protein 01A05 (other, trispecific; not shown: anti-albumin domain, anti-CD3 domain and the linkers of the trispecific (TriTAC) format) VHH: EVQLVESGGGLVQPGRSLTLSCAASTNIFSSSPMGWYRQAPGKQRELVAAIHGFSTLYADSVKGRFTISRDNAKNSIYLQMNSLRPEDTALYYCNKVPWGDYHPRNVYWGQGTQVTVSS | 0.0151 nM | 17 nM
BCMA targeting trispecific protein 01C04 (other, trispecific; not shown: anti-albumin domain, anti-CD3 domain and the linkers of the trispecific (TriTAC) chain; the C-terminal 6xHis tag follows these missing domains and is left out) VHH: EVQLVESGGGLVQPGRSLTLSCAASTNIPSISPMGWYRQAPGKQRELVAAIHGDSTLYADSVKGRFTISRDNAKNSIYLQMNSLRPEDTALYYCNKVPWGDYHPRNVYWGQGTQVTVSS | 0.0175 nM | 21.6 nM
BCMA targeting trispecific protein 01B08 (other, not shown: large carriers; small tags and cut ends, trispecific) VHH: EVQLVESGGGLVQPGRSLTLSCAASTNIESISPMGWYRQAPGKQRELVAAIHGSSTLYADSVKGRFTISRDNAKNSIYLQMNSLRPEDTALYYCNKVPWGRYHPRNVYWGQGTQVTVSS | 0.0876 nM | 25.6 nM
BCMA targeting trispecific protein 01A02 (other, not shown: large carriers; small tags and cut ends, trispecific) VHH: EVQLVESGGGLVQPGRSLTLSCAASTNIFSSSPMGWYRQAPGKQRELVAAINGFSTLYADSVKGRFTISRDNAKNSIYLQMNSLRPEDTALYYCNKVPWGDYHPRNVHWGQGTQVTVSS | 0.0218 nM | 21.5 nM
BCMA targeting trispecific protein 01C05 (other, not shown: large carriers; small tags and cut ends, trispecific) VHH: EVQLVESGGGLVQPGRSLTLSCAASTNIFSSSPMGWYRQAPGKQRELVAAIHGFKTLYADSVKGRFTISRDNAKNSIYLQMNSLRPEDTARYYCNKVPWGDYHPGNVYWGQGTQVTVSS | 0.00307 nM | 6.09 nM
BCMA targeting trispecific protein 01C06 (other, not shown: large carriers; small tags and cut ends, trispecific) VHH: EVQLVESGGGLVQPGRSLTLSCAASTNIFSISPMGWYRQAPGKQRELVAAIHGDSTLYADSVKGRFTISRDNAKNSIYLQMNSLRPEDTALYYCNKVPWGKYHPRNVYWGQGTQVTVSS | 0.0251 nM | 18.8 nM
BCMA targeting trispecific protein 01B06 (other, trispecific; not shown: the C-terminal 6xHis tag follows those missing domains and is left out) VHH: EVQLVESGGGLVQPGRSLTLSCAASTNIFSISPMGWYRQAPGKQRELVAAIHGDSTLYADSVKGRFTISRDNAKNSIYLQMNSLRPEDTALYYCNKVPWGEYHPRNVYWGQGTQVTVSS | 0.00697 nM | 9.1 nM
BCMA targeting trispecific protein 01B12 (other, not shown: large carriers; small tags and cut ends, trispecific) VHH: EVQLVESGGGLVQPGRSLTLSCAASTNIFSTSPMGWYRQAPGKQRELVAAIHGFQTLYADSVKGRFTISRDNAKNSIYLQMNSLRPEDTALYYCNKVPWGDYHPRNVVWGQGTQVTVSS | 0.0273 nM | 20.7 nM
